We go through one substance from article PMC6831737.

The target in this experiment is CAP256 SU gp140 (soluble cleavage-independent HIV-1 subtype C Env gp140 antigen) (HIV-1 subtype C, CAP256 SU virus). The experiment can be described thus: SEC + native gel or EMSA; GNL affinity-purified protein in PBS pH 7.4, fractionated on Superdex 200 HiLoad 16/600; pooled peaks resolved by BN-PAGE (NativePAGE 3-12% Bis-Tris) and stained with Coomassie. In general terms: Mobility shift assays separate free from complexed probe on a gel.

As a reminder, the stoichiometry N is a count of units in the complex or per binding partner. “CAP256 SU gp140 (soluble cleavage-independent HIV-1 subtype C Env gp140 antigen) (domain or fragment)”: the stoichiometry N is 3.
